Biological target: HSPB1 wild-type (human, UniProt P04792 1-205)
Assay: NMR titration

Chain of HSPB1 wild-type (P04792 whole entry): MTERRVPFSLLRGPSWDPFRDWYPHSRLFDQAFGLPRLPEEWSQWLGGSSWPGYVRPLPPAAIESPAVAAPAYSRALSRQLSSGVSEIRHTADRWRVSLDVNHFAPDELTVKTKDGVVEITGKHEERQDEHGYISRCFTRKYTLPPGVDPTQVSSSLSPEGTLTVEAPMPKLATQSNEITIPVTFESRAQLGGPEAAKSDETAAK

binding result: binds
B1: TDP-43 LCD (domain or fragment, UniProt Q13148 274-414, looked up)
chain: GRFGGNPGGFGNQGGFGNSRGGGAGLGNNQGSNMGGGMNFGAFSINPAMMAAAQAALQSSWGMMGMLASQQNQSGPSGNNQNQGNMQREPNQAFGSGNNSYSGSNSGAAIGWGSASNAGSGSGFNGGFGSSMDSKSSGWGM
